The assay addresses AcrB (from pET21a-acrBΔHis) (E. coli) (UniProt P31224). Description: cryo-EM structure; AcrB/DARPin and AcrBZ/DARPin reconstituted in saposin A discs with E. coli lipids, with or without additional 5% cardiolipin; 20 mM Tris-Cl pH 7.5, 150 mM NaCl; 2 mM minocycline (AcrB) or 1 mM chloramphenicol (AcrBZ) added.

We go through one substance from paper PMC7267776.

With “AcrB (from pET21a-acrBΔHis) (from UniProt P31224) (natural protein)”, the stoichiometry N (usually a count of units in the complex or per binding partner) is 3.
